The results in this text go back to doi:10.1101/2024.09.10.612331.

Series [1] has as its target ALX4 homeodomain R216A (R3A) (mouse cDNA (identical to human in this region, as the paper says)). As to the kind of experiment: native gel or EMSA.
Series [2] concerns the target ALX4 homeodomain R215A (R2A) (mouse cDNA (identical to human in this region, as the paper says)). As to the kind of experiment: native gel or EMSA. Background: Mobility shift assays separate free from complexed probe on a gel.
For series [3], the target named is ALX4 homeodomain (aa 209-274) (mouse cDNA (identical to human in this region, as the paper says)). As to the kind of experiment: native gel or EMSA.
For series [4] the target is unchanged. As to the kind of experiment: crystal structure.
Series [5] addresses ALX4 homeodomain V241R (V28R) (mouse cDNA (identical to human in this region, as the paper says)). As to the kind of experiment: native gel or EMSA.
The next series addresses ALX4 R215A (mouse cDNA (human protein sequence …, UniProt O35137 158-291, R203A)). As to the kind of experiment: ITC. A general note: In ITC the heat of successive injections is recorded.
The target of a further series is ALX4 K211E (mouse cDNA (human protein sequence …, UniProt O35137 158-291, K199E)). As to the kind of experiment: ITC.
The next series addresses ALX4 R216A (mouse cDNA (human protein sequence …, UniProt O35137 158-291, R204A)). As to the kind of experiment: ITC.
The target of series [6] is ALX4 WT (ITC, mutant-series EMSA) (mouse cDNA (human protein sequence …, UniProt O35137 158-291)). As to the kind of experiment: ITC.
Another series deals with ALX4 R218Q (mouse cDNA (human protein sequence …, UniProt O35137 158-291, R206Q)). As to the kind of experiment: ITC.
Another series has as its target ALX4 R215A;R216A (mouse cDNA (human protein sequence …, UniProt O35137 158-291, R203A;R204A)). As to the kind of experiment: ITC.
The next series addresses ALX4 V241R (mouse cDNA (human protein sequence …, UniProt O35137 158-291, V229R)). As to the kind of experiment: ITC.
The next series concerns the target ALX4 Q225E (mouse cDNA (human protein sequence …, UniProt O35137 158-291, Q213E)). As to the kind of experiment: ITC.
The target of another series is ALX4 R272P (mouse cDNA (human protein sequence …, UniProt O35137 158-291, R260P)). As to the kind of experiment: ITC.
The target of a further series is ALX4 R216G (mouse cDNA (human protein sequence …, UniProt O35137 158-291, R204G)). As to the kind of experiment: ITC.
Chain of ALX4 R216G (mouse cDNA (O35137 158-291 R204G): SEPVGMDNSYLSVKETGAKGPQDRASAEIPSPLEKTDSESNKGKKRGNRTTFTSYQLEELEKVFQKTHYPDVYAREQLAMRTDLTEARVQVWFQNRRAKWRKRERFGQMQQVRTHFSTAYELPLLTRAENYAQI

Chain of ALX4 R215A;R216A (mouse cDNA (O35137 158-291 R203A/R204A): as the sequence (O35137 158-291 R204G) above, with R46A, G47A counted along it
Chain of ALX4 R216A (mouse cDNA (O35137 158-291 R204A): as the sequence (O35137 158-291 R204G) above, with G47A counted along it
Chain of ALX4 Q225E (mouse cDNA (O35137 158-291 Q213E): as the sequence (O35137 158-291 R204G) above, with G47R, Q56E counted along it
Chain of ALX4 WT (ITC, mutant-series EMSA) (mouse cDNA (O35137 158-291, stated change not applied): as the sequence (O35137 158-291 R204G) above, with G47R counted along it
Chain of ALX4 R218Q (mouse cDNA (O35137 158-291 R206Q): as the sequence (O35137 158-291 R204G) above, with G47R, R49Q counted along it
Chain of ALX4 K211E (mouse cDNA (O35137 158-291 K199E): as the sequence (O35137 158-291 R204G) above, with K42E, G47R counted along it
Chain of ALX4 R272P (mouse cDNA (O35137 158-291 R260P): as the sequence (O35137 158-291 R204G) above, with G47R, R103P counted along it
Chain of ALX4 R215A (mouse cDNA (O35137 158-291 R203A): as the sequence (O35137 158-291 R204G) above, with R46A, G47R counted along it
Chain of ALX4 V241R (mouse cDNA (O35137 158-291 V229R): as the sequence (O35137 158-291 R204G) above, with G47R, V72R counted along it

On to “ALX4 homeodomain R216A (R3A) (domain or fragment)”, for which the fold reduction of cooperativity (Tau on the P3 site) against wild type in series [1] was 10 fold.

In [2], “ALX4 homeodomain R215A (R2A) (domain or fragment)” showed a fold reduction of cooperativity (Tau on the P3 site) against wild type of 5 fold.

Broadly, the stoichiometry N is the number of molecules, sites or subunits per partner or assembly. On to “ALX4 homeodomain (aa 209-274) (domain or fragment)”, for which, in series [3], the Tau (cooperativity factor on the P3 DNA site) came to 110 and the Tau (cooperativity factor on the P4 DNA site) worked out at 1.5. Further, in [4], the stoichiometry N stood at 2.

As to “ALX4 homeodomain V241R (V28R) (domain or fragment)”, the Tau (cooperativity factor on the P3 DNA site) in series [5] came to 0.327.

B1: 14-mer monomer site ITC duplex (dsDNA)
DNA 1: CGCTAATTAGCTCG
DNA 2: CGAGCTAATTAGCG
In general, Kd refers to the free concentration of one partner at which half of the binding sites on the other are occupied at equilibrium, for simple one-to-one binding. A low value points to a tighter complex. Regarding B1, the Kd with ALX4 R215A turned out to be 30.4 ± 18.5 nM; with ALX4 K211E, 21.5 ± 7.68 nM; with ALX4 R216A, 15.2 ± 4.63 nM; in series [6] it was 15.5 ± 0.98 nM; with ALX4 R215A;R216A, 214 ± 39.8 nM; with ALX4 V241R, 7.45 ± 5.22 nM. In addition, the values for the dissociation constant (Kd) with ALX4 Q225E, with ALX4 R272P and with ALX4 R216G were 52.5 ± 12.3 nM, 43.6 ± 12.1 nM and 41.8 ± 8.81 nM, respectively. For the same molecule, the binding result in the series with ALX4 R218Q is “no binding”.
